Reference: patent US20140087995A1 (published 2014)
Numbered stars: 1 amine (or outer) side, 2 acyl side, 3 side chain; on linkers, the order of the positions; unused ones are H or OH. Bridge positions count the residues as written; N and C are the ends. Square brackets hold non-standard residues; d marks the D form. Side chains are listed from the residue outwards. Ends that are not written are not given here. * marks the point of attachment. C20 diacid = O=C(O)CCCCCCCCCCCCCCCCCCC(=O)*; γGlu = O=C(O)[C@H](CCC(=O)[*:2])N[*:1]

T1: human calcitonin receptor (human, UniProt P30988 25-474)
T1 sequence (looked up): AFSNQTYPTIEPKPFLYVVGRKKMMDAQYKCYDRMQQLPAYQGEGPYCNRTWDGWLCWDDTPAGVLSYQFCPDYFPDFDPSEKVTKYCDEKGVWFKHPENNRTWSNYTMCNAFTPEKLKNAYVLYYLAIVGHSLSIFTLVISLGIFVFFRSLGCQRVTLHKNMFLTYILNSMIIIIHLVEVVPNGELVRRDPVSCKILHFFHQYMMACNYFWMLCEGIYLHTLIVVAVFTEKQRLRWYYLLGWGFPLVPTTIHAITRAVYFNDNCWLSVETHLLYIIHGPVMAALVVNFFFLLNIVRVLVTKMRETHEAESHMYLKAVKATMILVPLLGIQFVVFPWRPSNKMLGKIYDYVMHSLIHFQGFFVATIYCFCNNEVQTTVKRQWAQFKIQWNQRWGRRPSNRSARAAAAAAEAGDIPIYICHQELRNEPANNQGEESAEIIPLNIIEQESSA

B1: N^ε1-[(4S)-4-carboxy-4-(19-carboxynonadecanoylamino)butanoyl]-[Glu14,Arg17,Pro21,Pro27,His34,Glu35]-h-amylin (peptide)
peptide: K([γGlu-C20 diacid])CNTATCATQRLAEFLRHSSPNFGAIPSSTNVGHETY-NH2
modifications: disulfide 2-7; N-terminus assumed
SMILES: CC[C@H](C)[C@H](NC(=O)[C@H](C)NC(=O)CNC(=O)[C@H](Cc1ccccc1)NC(=O)[C@H](CC(N)=O)NC(=O)[C@@H]1CCCN1C(=O)[C@H](CO)NC(=O)[C@H](CO)NC(=O)[C@H](Cc1c[nH]cn1)NC(=O)[C@H](CCCNC(=N)N)NC(=O)[C@H](CC(C)C)NC(=O)[C@H](Cc1ccccc1)NC(=O)[C@H](CCC(=O)O)NC(=O)[C@H](C)NC(=O)[C@H](CC(C)C)NC(=O)[C@H](CCCNC(=N)N)NC(=O)[C@H](CCC(N)=O)NC(=O)[C@@H](NC(=O)[C@H](C)NC(=O)[C@@H]1CSSC[C@H](NC(=O)[C@@H](N)CCCCNC(=O)CC[C@H](NC(=O)CCCCCCCCCCCCCCCCCCC(=O)O)C(=O)O)C(=O)N[C@@H](CC(N)=O)C(=O)N[C@@H]([C@@H](C)O)C(=O)N[C@@H](C)C(=O)N[C@@H]([C@@H](C)O)C(=O)N1)[C@@H](C)O)C(=O)N1CCC[C@H]1C(=O)N[C@@H](CO)C(=O)N[C@@H](CO)C(=O)N[C@H](C(=O)N[C@@H](CC(N)=O)C(=O)N[C@H](C(=O)NCC(=O)N[C@@H](Cc1c[nH]cn1)C(=O)N[C@@H](CCC(=O)O)C(=O)N[C@H](C(=O)N[C@@H](Cc1ccc(O)cc1)C(N)=O)[C@@H](C)O)C(C)C)[C@@H](C)O
notes: synthetic peptide amide; also called compound 107
B2: N^ε1-[(4S)-4-carboxy-4-(19-carboxynonadecanoylamino)butanoyl]-[Glu14,Arg17,Pro21,Pro27,Pro34,His35]-h-amylin (peptide)
peptide: K([γGlu-C20 diacid])CNTATCATQRLAEFLRHSSPNFGAIPSSTNVGPHTY-NH2
modifications: disulfide 2-7
notes: synthetic peptide amide
B3: N^ε1-[(4S)-4-carboxy-4-[[(4S)-4-carboxy-4-(19-carboxynonadecanoylamino)butanoyl]amino]butanoyl]-[D-Asp14,Arg17,Pro21,Pro27,Arg35]-h-amylin (peptide)
peptide: K([γGlu-γGlu-C20 diacid])CNTATCATQRLA[dD]FLRHSSPNFGAIPSSTNVGSRTY-NH2
modifications: disulfide 2-7; N-terminus assumed
SMILES: CC[C@H](C)[C@H](NC(=O)[C@H](C)NC(=O)CNC(=O)[C@H](Cc1ccccc1)NC(=O)[C@H](CC(N)=O)NC(=O)[C@@H]1CCCN1C(=O)[C@H](CO)NC(=O)[C@H](CO)NC(=O)[C@H](Cc1c[nH]cn1)NC(=O)[C@H](CCCNC(=N)N)NC(=O)[C@H](CC(C)C)NC(=O)[C@H](Cc1ccccc1)NC(=O)[C@@H](CC(=O)O)NC(=O)[C@H](C)NC(=O)[C@H](CC(C)C)NC(=O)[C@H](CCCNC(=N)N)NC(=O)[C@H](CCC(N)=O)NC(=O)[C@@H](NC(=O)[C@H](C)NC(=O)[C@@H]1CSSC[C@H](NC(=O)[C@@H](N)CCCCNC(=O)CC[C@H](NC(=O)CC[C@H](NC(=O)CCCCCCCCCCCCCCCCCCC(=O)O)C(=O)O)C(=O)O)C(=O)N[C@@H](CC(N)=O)C(=O)N[C@@H]([C@@H](C)O)C(=O)N[C@@H](C)C(=O)N[C@@H]([C@@H](C)O)C(=O)N1)[C@@H](C)O)C(=O)N1CCC[C@H]1C(=O)N[C@@H](CO)C(=O)N[C@@H](CO)C(=O)N[C@H](C(=O)N[C@@H](CC(N)=O)C(=O)N[C@H](C(=O)NCC(=O)N[C@@H](CO)C(=O)N[C@@H](CCCNC(=N)N)C(=O)N[C@H](C(=O)N[C@@H](Cc1ccc(O)cc1)C(N)=O)[C@@H](C)O)C(C)C)[C@@H](C)O
notes: synthetic peptide amide
B4: N^ε1-[(4S)-4-carboxy-4-[[(4S)-4-carboxy-4-(19-carboxynonadecanoylamino)butanoyl]amino]butanoyl]-[Arg17,Pro21,Pro27,Pro31,Pro34,Arg35]-h-amylin (peptide)
peptide: K([γGlu-γGlu-C20 diacid])CNTATCATQRLANFLRHSSPNFGAIPSSTPVGPRTY-NH2
modifications: disulfide 2-7; N-terminus assumed
SMILES: CC[C@H](C)[C@H](NC(=O)[C@H](C)NC(=O)CNC(=O)[C@H](Cc1ccccc1)NC(=O)[C@H](CC(N)=O)NC(=O)[C@@H]1CCCN1C(=O)[C@H](CO)NC(=O)[C@H](CO)NC(=O)[C@H](Cc1c[nH]cn1)NC(=O)[C@H](CCCNC(=N)N)NC(=O)[C@H](CC(C)C)NC(=O)[C@H](Cc1ccccc1)NC(=O)[C@H](CC(N)=O)NC(=O)[C@H](C)NC(=O)[C@H](CC(C)C)NC(=O)[C@H](CCCNC(=N)N)NC(=O)[C@H](CCC(N)=O)NC(=O)[C@@H](NC(=O)[C@H](C)NC(=O)[C@@H]1CSSC[C@H](NC(=O)[C@@H](N)CCCCNC(=O)CC[C@H](NC(=O)CC[C@H](NC(=O)CCCCCCCCCCCCCCCCCCC(=O)O)C(=O)O)C(=O)O)C(=O)N[C@@H](CC(N)=O)C(=O)N[C@@H]([C@@H](C)O)C(=O)N[C@@H](C)C(=O)N[C@@H]([C@@H](C)O)C(=O)N1)[C@@H](C)O)C(=O)N1CCC[C@H]1C(=O)N[C@@H](CO)C(=O)N[C@@H](CO)C(=O)N[C@H](C(=O)N1CCC[C@H]1C(=O)N[C@H](C(=O)NCC(=O)N1CCC[C@H]1C(=O)N[C@@H](CCCNC(=N)N)C(=O)N[C@H](C(=O)N[C@@H](Cc1ccc(O)cc1)C(N)=O)[C@@H](C)O)C(C)C)[C@@H](C)O
notes: synthetic peptide amide
B5: N^ε1-[(4S)-4-carboxy-4-(19-carboxynonadecanoylamino)butanoyl]-[Glu14,Arg17,Pro21,Pro27,His35]-h-amylin (peptide)
peptide: K([γGlu-C20 diacid])CNTATCATQRLAEFLRHSSPNFGAIPSSTNVGSHTY-NH2
modifications: disulfide 2-7; N-terminus assumed
SMILES: CC[C@H](C)[C@H](NC(=O)[C@H](C)NC(=O)CNC(=O)[C@H](Cc1ccccc1)NC(=O)[C@H](CC(N)=O)NC(=O)[C@@H]1CCCN1C(=O)[C@H](CO)NC(=O)[C@H](CO)NC(=O)[C@H](Cc1c[nH]cn1)NC(=O)[C@H](CCCNC(=N)N)NC(=O)[C@H](CC(C)C)NC(=O)[C@H](Cc1ccccc1)NC(=O)[C@H](CCC(=O)O)NC(=O)[C@H](C)NC(=O)[C@H](CC(C)C)NC(=O)[C@H](CCCNC(=N)N)NC(=O)[C@H](CCC(N)=O)NC(=O)[C@@H](NC(=O)[C@H](C)NC(=O)[C@@H]1CSSC[C@H](NC(=O)[C@@H](N)CCCCNC(=O)CC[C@H](NC(=O)CCCCCCCCCCCCCCCCCCC(=O)O)C(=O)O)C(=O)N[C@@H](CC(N)=O)C(=O)N[C@@H]([C@@H](C)O)C(=O)N[C@@H](C)C(=O)N[C@@H]([C@@H](C)O)C(=O)N1)[C@@H](C)O)C(=O)N1CCC[C@H]1C(=O)N[C@@H](CO)C(=O)N[C@@H](CO)C(=O)N[C@H](C(=O)N[C@@H](CC(N)=O)C(=O)N[C@H](C(=O)NCC(=O)N[C@@H](CO)C(=O)N[C@@H](Cc1c[nH]cn1)C(=O)N[C@H](C(=O)N[C@@H](Cc1ccc(O)cc1)C(N)=O)[C@@H](C)O)C(C)C)[C@@H](C)O
notes: synthetic peptide amide
B6: N^ε1-[(4S)-4-carboxy-4-[[(4S)-4-carboxy-4-(19-carboxynonadecanoylamino)butanoyl]amino]butanoyl]-[Asp14,Arg17,Pro21,Pro27,Pro34,Arg35]-h-amylin (peptide)
peptide: K([γGlu-γGlu-C20 diacid])CNTATCATQRLADFLRHSSPNFGAIPSSTNVGPRTY-NH2
modifications: disulfide 2-7
notes: synthetic peptide amide; also called compound 130
B7: N^ε1-[(4S)-4-carboxy-4-[[(4S)-4-carboxy-4-(19-carboxynonadecanoylamino)butanoyl]amino]butanoyl]-[Glu14,Arg17,Pro21,Pro27,Arg34,Glu35]-h-amylin (peptide)
peptide: K([γGlu-γGlu-C20 diacid])CNTATCATQRLAEFLRHSSPNFGAIPSSTNVGRETY-NH2
modifications: disulfide 2-7; N-terminus assumed
SMILES: CC[C@H](C)[C@H](NC(=O)[C@H](C)NC(=O)CNC(=O)[C@H](Cc1ccccc1)NC(=O)[C@H](CC(N)=O)NC(=O)[C@@H]1CCCN1C(=O)[C@H](CO)NC(=O)[C@H](CO)NC(=O)[C@H](Cc1c[nH]cn1)NC(=O)[C@H](CCCNC(=N)N)NC(=O)[C@H](CC(C)C)NC(=O)[C@H](Cc1ccccc1)NC(=O)[C@H](CCC(=O)O)NC(=O)[C@H](C)NC(=O)[C@H](CC(C)C)NC(=O)[C@H](CCCNC(=N)N)NC(=O)[C@H](CCC(N)=O)NC(=O)[C@@H](NC(=O)[C@H](C)NC(=O)[C@@H]1CSSC[C@H](NC(=O)[C@@H](N)CCCCNC(=O)CC[C@H](NC(=O)CC[C@H](NC(=O)CCCCCCCCCCCCCCCCCCC(=O)O)C(=O)O)C(=O)O)C(=O)N[C@@H](CC(N)=O)C(=O)N[C@@H]([C@@H](C)O)C(=O)N[C@@H](C)C(=O)N[C@@H]([C@@H](C)O)C(=O)N1)[C@@H](C)O)C(=O)N1CCC[C@H]1C(=O)N[C@@H](CO)C(=O)N[C@@H](CO)C(=O)N[C@H](C(=O)N[C@@H](CC(N)=O)C(=O)N[C@H](C(=O)NCC(=O)N[C@@H](CCCNC(=N)N)C(=O)N[C@@H](CCC(=O)O)C(=O)N[C@H](C(=O)N[C@@H](Cc1ccc(O)cc1)C(N)=O)[C@@H](C)O)C(C)C)[C@@H](C)O
notes: synthetic peptide amide
B8: N^ε1-[(4S)-4-carboxy-4-(19-carboxynonadecanoylamino)butanoyl]-[Glu14,Arg17,Pro21,Pro27,Pro34,Arg35]-h-amylin (peptide)
peptide: K([γGlu-C20 diacid])CNTATCATQRLAEFLRHSSPNFGAIPSSTNVGPRTY-NH2
modifications: disulfide 2-7; N-terminus assumed
SMILES: CC[C@H](C)[C@H](NC(=O)[C@H](C)NC(=O)CNC(=O)[C@H](Cc1ccccc1)NC(=O)[C@H](CC(N)=O)NC(=O)[C@@H]1CCCN1C(=O)[C@H](CO)NC(=O)[C@H](CO)NC(=O)[C@H](Cc1c[nH]cn1)NC(=O)[C@H](CCCNC(=N)N)NC(=O)[C@H](CC(C)C)NC(=O)[C@H](Cc1ccccc1)NC(=O)[C@H](CCC(=O)O)NC(=O)[C@H](C)NC(=O)[C@H](CC(C)C)NC(=O)[C@H](CCCNC(=N)N)NC(=O)[C@H](CCC(N)=O)NC(=O)[C@@H](NC(=O)[C@H](C)NC(=O)[C@@H]1CSSC[C@H](NC(=O)[C@@H](N)CCCCNC(=O)CC[C@H](NC(=O)CCCCCCCCCCCCCCCCCCC(=O)O)C(=O)O)C(=O)N[C@@H](CC(N)=O)C(=O)N[C@@H]([C@@H](C)O)C(=O)N[C@@H](C)C(=O)N[C@@H]([C@@H](C)O)C(=O)N1)[C@@H](C)O)C(=O)N1CCC[C@H]1C(=O)N[C@@H](CO)C(=O)N[C@@H](CO)C(=O)N[C@H](C(=O)N[C@@H](CC(N)=O)C(=O)N[C@H](C(=O)NCC(=O)N1CCC[C@H]1C(=O)N[C@@H](CCCNC(=N)N)C(=O)N[C@H](C(=O)N[C@@H](Cc1ccc(O)cc1)C(N)=O)[C@@H](C)O)C(C)C)[C@@H](C)O
notes: synthetic peptide amide
B9: N^ε1-[(4S)-4-carboxy-4-[[(4S)-4-carboxy-4-(19-carboxynonadecanoylamino)butanoyl]amino]butanoyl]-[Asp14,Arg17,Pro21,Pro27,Pro34,Glu35]-h-amylin (peptide)
peptide: K([γGlu-γGlu-C20 diacid])CNTATCATQRLADFLRHSSPNFGAIPSSTNVGPETY-NH2
modifications: disulfide 2-7
notes: synthetic peptide amide

These binders were tested against T1, human calcitonin receptor (assay: cell-based or functional assay).
In the case of B1, the “hCTR funct. EC50 (pM)” value is reported as 2540 pM.
For B2, the “hCTR funct. EC50 (pM)” value was 1450 pM.
With B3 the “hCTR funct. EC50 (pM)” value was 100000 pM.
With B4 the “hCTR funct. EC50 (pM)” value was 8660 pM.
In the case of B5, the “hCTR funct. EC50 (pM)” value is reported as 5580 pM.
B6 was tested, and the “hCTR funct. EC50 (pM)” value was 7280 pM.
With B7 the “hCTR funct. EC50 (pM)” value was 7430 pM.
In the case of B8, the “hCTR funct. EC50 (pM)” value is reported as 6380 pM.
With B9 the “hCTR funct. EC50 (pM)” value was 843 pM.
